T1: Qa-SNARE Vam3 in proteoliposomes (S. cerevisiae, UniProt Q12241 1-283)
T1 sequence: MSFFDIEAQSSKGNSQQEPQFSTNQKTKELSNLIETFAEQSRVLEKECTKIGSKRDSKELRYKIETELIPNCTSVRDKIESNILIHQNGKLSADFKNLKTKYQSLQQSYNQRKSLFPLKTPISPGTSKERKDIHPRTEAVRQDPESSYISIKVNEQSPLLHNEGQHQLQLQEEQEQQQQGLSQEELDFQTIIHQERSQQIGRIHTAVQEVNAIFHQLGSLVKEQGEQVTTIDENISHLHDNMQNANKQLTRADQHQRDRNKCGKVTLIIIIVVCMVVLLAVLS

B1: Sec18 (enzyme)
chain: MFKIPGFGKAAANHTPPDMTNMDTRTRHLKVSNCPNNSYALANVAAVSPNDFPNNIYIIIDNLFVFTTRHSNDIPPGTIGFNGNQRTWGGWSLNQDVQAKAFDLFKYSGKQSYLGSIDIDISFRARGKAVSTVFDQDELAKQFVRCYESQIFSPTQYLIMEFQGHFFDLKIRNVQAIDLGDIEPTSAVATGIETKGILTKQTQINFFKGRDGLVNLKSSNSLRPRSNAVIRPDFKFEDLGVGGLDKEFTKIFRRAFASRIFPPSVIEKLGISHVKGLLLYGPPGTGKTLIARKIGTMLNAKEPKIVNGPEILSKYVGSSEENIRNLFKDAEAEYRAKGEESSLHIIIFDELDSVFKQRGSRGDGTGVGDNVVNQLLAKMDGVDQLNNILVIGMTNRKDLIDSALLRPGRFEVQVEIHLPDEKGRLQIFDIQTKKMRENNMMSDDVNLAELAALTKNFSGAEIEGLVKSASSFAINKTVNIGKGATKLNTKDIAKLKVTREDFLNALNDVTPAFGISEEDLKTCVEGGMMLYSERVNSILKNGARYVRQVRESDKSRLVSLLIHGPAGSGKTALAAEIALKSGFPFIRLISPNELSGMSESAKIAYIDNTFRDAYKSPLNILVIDSLETLVDWVPIGPRFSNNILQMLKVALKRKPPQDRRLLIMTTTSAYSVLQQMDILSCFDNEIAVPNMTNLDELNNVMIESNFLDDAGRVKVINELSRSCPNFNVGIKKTLTNIETARHDEDPVNELVELMTQSA
B2: Sec17 (natural protein)
chain: MSDPVELLKRAEKKGVPSSGFMKLFSGSDSYKFEEAADLCVQAATIYRLRKELNLAGDSFLKAADYQKKAGNEDEAGNTYVEAYKCFKSGGNSVNAVDSLENAIQIFTHRGQFRRGANFKFELGEILENDLHDYAKAIDCYELAGEWYAQDQSVALSNKCFIKCADLKALDGQYIEASDIYSKLIKSSMGNRLSQWSLKDYFLKKGLCQLAATDAVAAARTLQEGQSEDPNFADSRESNFLKSLIDAVNEGDSEQLSEHCKEFDNFMRLDKWKITILNKIKESIQQQEDDLL
B3: R-SNARE Nyv1 (natural protein)
chain: MKRFNVSYVEVIKNGETISSCFQPFQKNENYGTITSANEQITPVIFHNLIMDMVLPKVVPIKGNKVTKMSMNLIDGFDCFYSTDDHDPKTVYVCFTLVDMPKILPIRILSGLQEYESNATNELLSSHVGQILDSFHEELVEYRNQTLNSSGNGQSSNGNGQNTISDIGDATEDQIKDVIQIMNDNIDKFLERQERVSLLVDKTSQLNSSSNKFRRKAVNIKEIMWWQKVKNITLLTFTIILFVSAAFMFFYLW
B4: 3Q-SNARE complex (QaQbQc) on proteoliposomes (complex)
chain 1: T1 sequence
chain 2: MSSLLISYESDFKTTLEQAKASLAEAPSQPLSQRNTTLKHVEQQQDELFDLLDQMDVEVNNSIGDASERATYKAKLREWKKTIQSDIKRPLQSLVDSGDRDRLFGDLNASNIDDDQRQQLLSNHAILQKSGDRLKDASRIANETEGIGSQIMMDLRSQRETLENARQTLFQADSYVDKSIKTLKTMTRRLVANKFISYAIIAVLILLILLVLFSKFK
chain 3: MAANSVGKMSEKLRIKVDDVKINPKYVLYGVSTPNKRLYKRYSEFWKLKTRLERDVGSTIPYDFPEKPGVLDRRWQRRYDDPEMIDERRIGLERFLNELYNDRFDSRWRDTKIAQDFLQLSKPNVSQEKSQQHLETADEVGWDEMIRDIKLDLDKESDGTPSVRGALRARTKLHKLRERLEQDVQKKSLPSTEVTRRAALLRSLLKECDDIGTANIAQDRGRLLGVATSDNSSTTEVQGRTNNDLQQGQMQMVRDQEQELVALHRIIQAQRGLALEMNEELQTQNELLTALEDDVDNTGRRLQIANKKARHFNNSA

Legend:
[1] = biological target: four-SNARE bundle with GST-Qa (GST-Qa, R, Qb, Qc) in detergent (S. cerevisiae, UniProt Q12241;Q12255;Q04338;P32912); assay: pull-down
[2] = biological target: HOPS (homotypic fusion and vacuole protein sorting complex) (S. cerevisiae, UniProt P12868;Q03308;P27801;P20795;Q07468;P38959); assay: proteoliposome floatation
[3] = biological target: B4; assay: proteoliposome floatation
[4] = biological target: 4-SNARE complex (R, Qa, Qb, Qc) on proteoliposomes (S. cerevisiae, UniProt Q12255;Q12241;Q04338;P32912); assay: proteoliposome floatation
[5] = biological target: T1, Qa-SNARE Vam3 in proteoliposomes; assay: co-IP

Row | binding result [1] | binding result [2] | binding result [3] | binding result [4] | binding result [5] | Binder
1 | binds | binds | binds | binds | – | B1
2 | binds | – | – | – | – | B2
3 | – | binds | – | – | binds | B3
4 | – | binds | – | – | – | B4
